FireProtDB
Where “and” joins values, the source holds several entries; their conditions need not be identical. Equal values may be shown once.

Settings: whole UniProt chain shown
[1] = Lithobates pipiens, pH 6, 25 °C, GdnHCl, DSC, MES 100 mM, reversible: yes
[2] = Locusta migratoria, pH 3, 20 °C, Thermal, NMR, Unknown
[3] = Homo sapiens, pH 7.5, 23 °C, GdnHCl, Fluorescence, Tris-HCl 50 mM, reversible: yes
[4] = Homo sapiens, pH 6.2, 25 °C, 2-Propanol, CD, Piperazine Unknown, NaCl 30 mM, transition: 2, reversible: Yes
[5] = Locusta migratoria, pH 7, 25 °C, GdnHCl, CD, Sodium phosphate 50 mM, KCl 100 mM, reversible: yes

B1: Thymidylate synthase wild type, P00469 (protein)
chain: MLEQPYLDLAKKVLDEGHFKPDRTHTGTYSIFGHQMRFDLSKGFPLLTTKKVPFGLIKSELLWFLHGDTNIRFLLQHRNHIWDEWAFEKWVKSDEYHGPDMTDFGHRSQKDPEFAAVYHEEMAKFDDRVLHDDAFAAKYGDLGLVYGSQWRAWHTSKGDTIDQLGDVIEQIKTHPYSRRLIVSAWNPEDVPTMALPPCHTLYQFYVNDGKLSLQLYQRSADIFLGVPFNIASYALLTHLVAHECGLEVGEFIHTFGDAHLYVNHLDQIKEQLSRTPRPAPTLQLNPDKHDIFDFDMKDIKLLNYDPYPAIKAPVAV
In the case of B1, the unfolding free energy (Lacticaseibacillus casei, pH 7, 4 °C, Urea, CD, KHPO4 20 mM, KCl 0.5 M, reversible: yes) is reported as 19.1 kcal/mol.

B2: Persulfide dioxygenase ETHE1, mitochondrial wild type, O95571 (protein)
chain: MAEAVLRVARRQLSQRGGSGAPILLRQMFEPVSCTFTYLLGDRESREAVLIDPVLETAPRDAQLIKELGLRLLYAVNTHCHADHITGSGLLRSLLPGCQSVISRLSGAQADLHIEDGDSIRFGRFALETRASPGHTPGCVTFVLNDHSMAFTGDALLIRGCGRTDFQQGCAKTLYHSVHEKIFTLPGDCLIYPAHDYHGFTVSTVEEERTLNPRLTLSCEEFVKIMGNLNLPKPQQIDFAVPANMRCGVQTPTA
B2 gave a Tm (Homo sapiens, pH 7.5, Thermal, CD, Tris-HCl 50mM, NaCl 150mM, transition: 2) of 62 °C.

B3: Endo-1,4-beta-xylanase 2 wild type, P36217 (protein)
chain: MVSFTSLLAGVAAISGVLAAPAAEVESVAVEKRQTIQPGTGYNNGYFYSYWNDGHGGVTYTNGPGGQFSVNWSNSGNFVGGKGWQPGTKNKVINFSGSYNPNGNSYLSVYGWSRNPLIEYYIVENFGTYNPSTGATKLGEVTSDGSVYDIYRTQRVNQPSIIGTATFYQYWSVRRNHRSSGSVNTANHFNAWAQQGLTLGTMDYQIVAVEGYFSSGSASITVS
Protein B3 has a Tm (Hypocrea jecorina (strain ATCC 56765 / BCRC 32924 / NRRL 11460 / Rut C-30), pH 5, Thermal, DSC, citrate - phosphate buffer 50 mM) of 61.4 °C.

B4: Arginine kinase wild type, P14208 (protein)
chain: MADAATIAKLEEGFKKLEAATDCKSLLKKYLSKDIFDSLKAKKTSLGATLLDVIQSGVENLDSGVGIYAPDAEAYSLFAPLFDPIIEDYHKGFKQTDKHPAKDFGDVSKFINVDPEGTFVISTRVRCGRSMEGYPFNPCLTEAQYKEMEEKVSSTLSGLEGELKGSYFPLTGMTKEVQQKLIDDHFLFKEGDRFLQAANACRYWPAGRGIYHNDNKTFLVWCNEEDHLRIISMQMGGDLGQVYRRLVSAVNDIEKRVPFSHHDRLGFLTFCPTNLGTTVRASVHIKLPKLAANREKLEEVAAKFSLQVRGTRGEHTEAEGGIYDISNKRRMGLTEFQAVKEMQDGILELIKIEKEM
Work on B4 yielded an unfolding free energy (Homarus gammarus, pH 7.4, 22 °C, GdnHCl, CD, Sodium phosphate 100 mM) of 5.98 kcal/mol.

B5: wild type, Q96HL2 (protein)
chain: MTKLRAQQCRFWTSFFPKVLEMTGNIDEAEWEWKAGFHRWNNYMMDWKNQFNDYTSKKESCVGL
Protein B5 has a Tm (Homo sapiens, pH 8, Thermal, DSC, sodium phosphate 50 mM) of 62.8 °C.

B6: Protein P-30 wild type, P22069 (protein)
chain: QDWLTFQKKHITNTRDVDCDNIMSTNLFHCKDKNTFIYSRPEPVKAICKGIIASKNVLTTSEFYLSDCNVTSRPCKYKLKKSTNKFCVTCENQAPVHFVGVGSC
In the case of B6, the denaturant m value [1] is reported as 3.08 kcal/mol/M, the “denaturant midpoint (higher = more stable)” value (“denaturant midpoint” below) [1] is reported as 4.5 M and the unfolding free energy [1] is reported as 13.9 kcal/mol.

B7: Protease inhibitors wild type, P80060 (protein)
chain: MKFALALCAAVLLVVLVQAEEKCTPGQVKQQDCNTCTCTPTGVWGCTRKGCQPAKREISCEPGKTFKDKCNTCRCGADGKSAACTLKACPNQ
In the case of B7, the “unfolding enthalpy (van 't Hoff)” value [2] is reported as 19.3 kcal/mol and the unfolding free energy [2] is reported as 1.1 kcal/mol.

B8: Tissue factor wild type, P13726 (protein)
chain: METPAWPRVPRPETAVARTLLLGWVFAQVAGASGTTNTVAAYNLTWKSTNFKTILEWEPKPVNQVYTVQISTKSGDWKSKCFYTTDTECDLTDEIVKDVKQTYLARVFSYPAGNVESTGSAGEPLYENSPEFTPYLETNLGQPTIQSFEQVGTKVNVTVEDERTLVRRNNTFLSLRDVFGKDLIYTLYYWKSSSSGKKTAKTNTNEFLIDVDKGENYCFSVQAVIPSRTVNRKSTDSPVECMGQEKGEFREIFYIIGAVVFVVIILVIILAISLHKCRKAGVGQSWKENSPLNVS
With B8 the “denaturant midpoint” value [3] was 1.35 M and the unfolding free energy [3] was 6.3 kcal/mol.

B9: Glycodelin wild type, P09466 (protein)
chain: MLCLLLTLGVALVCGVPAMDIPQTKQDLELPKLAGTWHSMAMATNNISLMATLKAPLRVHITSLLPTPEDNLEIVLHRWENNSCVEKKVLGEKTENPKKFKINYTVANEATLLDTDYDNFLFLCLQDTTTPIQSMMCQYLARVLVEDDEIMQGFIRAFRPLPRHLWYLLDLKQMEEPCRF
For B9, the denaturant m value [4] was 1.5 kcal/mol/M, the “denaturant midpoint” value [4] was 3.5 M and the unfolding free energy [4] was 5.4 kcal/mol.

B10: Metallocarboxypeptidase inhibitor wild type, P81511 (protein)
chain: MFLLVFLCCLHLVISSHTPDESFLCYQPDQVCCFICRGAAPLPSEGECNPHPTAPWCREGAVEWVPYSTGQCRTTCIPYVE
With B10 the “denaturant midpoint” value (Hirudo medicinalis, pH 8.4, 23 °C, GdnHCl, Fluorescence, Tris-HCl 0.1 M) was 3.6 M and the “denaturant midpoint” value (Hirudo medicinalis, pH 8.4, 23 °C, GdnSCN, Fluorescence, Tris-HCl 0.1 M) was 2.4 M.

B11: Subtilisin Savinase wild type, P29600 (protein)
chain: AQSVPWGISRVQAPAAHNRGLTGSGVKVAVLDTGISTHPDLNIRGGASFVPGEPSTQDGNGHGTHVAGTIAALNNSIGVLGVAPSAELYAVKVLGASGSGSVSSIAQGLEWAGNNGMHVANLSLGSPSPSATLEQAVNSATSRGVLVVAASGNSGAGSISYPARYANAMAVGATDQNNNRASFSQYGAGLDIVAPGVNVQSTYPGSTYASLNGTSMATPHVAGAAALVKQKNPSWSNVQIRNHLKNTATSLGSTNLYGSGLVNAEAATR
With B11 the Tm (Lederbergia lenta, pH 8.8, Thermal, CD, Tris buffer 100 mM, reversible: No) was 77.2 °C and 79.2 °C and the Tm (Lederbergia lenta, pH 9, Thermal, DSC, boric acid 100 mM, CaCl2 2 mM) was 72.7 °C and 75.5 °C.

B12: Apolipophorin-3b wild type, P10762 (protein)
chain: MNTLLAVLMLAVAAQARPDAAGHVNIAEAVQQLNHTIVNAAHELHETLGLPTPDEALNLLTEQANAFKTKIAEVTTSLKQEAEKHQGSVAEQLNRFARNLNNSIHDAATSAQPADQLNSLQSALTNVGHQWQTSQPRPSVAQEAWAPVQSALQEAAEKTKEAAANLQNSIQSAVQKPAN
With B12 the denaturant m value [5] was 3.46 kcal/mol/M and 4.33 kcal/mol/M and the “denaturant midpoint” value [5] was 0.6 M and 0.27 M.

B13: wild type, Q2YD82 (protein)
chain: MDCAEGRAANLPCNHSTISGNEYVYWYRQIHSQGPQYIIHGLKNNETNEMASLIITEDRKSSTLILPHATLRDTAVYYCIVYDYGQNFVFGPGTRLSVLPYIQNPDPAVYQLRDSKSSDKSVCLFTDFDSQTNVSQSKDSDVYITDKTVLDMRSMDFKSNSAVAWSNKSDFACANAFNNSIIPEDTFFPSPESSCDVKLVEKSFETDTNLNFQNLSVIGFRILLLKVAGFNLLMTLRLWSS
For B13, the Tm (Homo sapiens, Thermal, fluorescence) was 54.9 °C and 53.3 °C.
